This is an account of results in US20240209076A1 (KODIAK SCIENCES, published 2024).

The labels stand for the following.
B1: anti-IL-6 antibody, heavy chain T63E, light chain WT (antibody, IgG1, V domains shown)
VH: EVQLVESGGGLVQPGGSLRLSCAASGFTFSPFAMSWVRQAPGKGLEWVAKISPGGSWTYYSDEVTGRFTFSLDTSKSTAYLQMNSLRAEDTAVYYCARQLWGYYALDIWGQGTLVTVSS
VL: DIQLTQSPSSLSASVGDRVTITCSASISVSYMYWYQQKPGKAPKLLIYDMSNLASGVPSRFSGSGSGTDFTLTISSLQPEDFATYYCMQWSGYPYTFGQGTKVEIK
notes: Full IgG1 tested; V domains derived as in m2
B2: anti-IL-6 antibody, heavy chain WT, light chain S26H (antibody, IgG1, V domains shown)
VH: EVQLVESGGGLVQPGGSLRLSCAASGFTFSPFAMSWVRQAPGKGLEWVAKISPGGSWTYYSDTVTGRFTFSLDTSKSTAYLQMNSLRAEDTAVYYCARQLWGYYALDIWGQGTLVTVSS
VL: DIQLTQSPSSLSASVGDRVTITCSAHISVSYMYWYQQKPGKAPKLLIYDMSNLASGVPSRFSGSGSGTDFTLTISSLQPEDFATYYCMQWSGYPYTFGQGTKVEIK
notes: as for B1
B3: anti-IL-6 antibody, heavy chain T63Q, light chain WT (antibody, IgG1, V domains shown)
VH: EVQLVESGGGLVQPGGSLRLSCAASGFTFSPFAMSWVRQAPGKGLEWVAKISPGGSWTYYSDQVTGRFTFSLDTSKSTAYLQMNSLRAEDTAVYYCARQLWGYYALDIWGQGTLVTVSS
VL: DIQLTQSPSSLSASVGDRVTITCSASISVSYMYWYQQKPGKAPKLLIYDMSNLASGVPSRFSGSGSGTDFTLTISSLQPEDFATYYCMQWSGYPYTFGQGTKVEIK
notes: as for B1
B4: anti-IL-6 antibody, heavy chain WT, light chain S26G (antibody, IgG1, V domains shown)
VH: EVQLVESGGGLVQPGGSLRLSCAASGFTFSPFAMSWVRQAPGKGLEWVAKISPGGSWTYYSDTVTGRFTFSLDTSKSTAYLQMNSLRAEDTAVYYCARQLWGYYALDIWGQGTLVTVSS
VL: DIQLTQSPSSLSASVGDRVTITCSAGISVSYMYWYQQKPGKAPKLLIYDMSNLASGVPSRFSGSGSGTDFTLTISSLQPEDFATYYCMQWSGYPYTFGQGTKVEIK
notes: as for B1
B5: anti-IL-6 antibody, heavy chain V48I, light chain WT (antibody, IgG1, V domains shown)
VH: EVQLVESGGGLVQPGGSLRLSCAASGFTFSPFAMSWVRQAPGKGLEWIAKISPGGSWTYYSDTVTGRFTFSLDTSKSTAYLQMNSLRAEDTAVYYCARQLWGYYALDIWGQGTLVTVSS
VL: DIQLTQSPSSLSASVGDRVTITCSASISVSYMYWYQQKPGKAPKLLIYDMSNLASGVPSRFSGSGSGTDFTLTISSLQPEDFATYYCMQWSGYPYTFGQGTKVEIK
notes: as for B1
B6: anti-IL-6 antibody, heavy chain T63G, light chain WT (antibody, IgG1, V domains shown)
VH: EVQLVESGGGLVQPGGSLRLSCAASGFTFSPFAMSWVRQAPGKGLEWVAKISPGGSWTYYSDGVTGRFTFSLDTSKSTAYLQMNSLRAEDTAVYYCARQLWGYYALDIWGQGTLVTVSS
VL: DIQLTQSPSSLSASVGDRVTITCSASISVSYMYWYQQKPGKAPKLLIYDMSNLASGVPSRFSGSGSGTDFTLTISSLQPEDFATYYCMQWSGYPYTFGQGTKVEIK
notes: as for B1
B7: anti-IL-6 antibody, heavy chain WT, light chain S24K (antibody, IgG1, V domains shown)
VH: EVQLVESGGGLVQPGGSLRLSCAASGFTFSPFAMSWVRQAPGKGLEWVAKISPGGSWTYYSDTVTGRFTFSLDTSKSTAYLQMNSLRAEDTAVYYCARQLWGYYALDIWGQGTLVTVSS
VL: DIQLTQSPSSLSASVGDRVTITCKASISVSYMYWYQQKPGKAPKLLIYDMSNLASGVPSRFSGSGSGTDFTLTISSLQPEDFATYYCMQWSGYPYTFGQGTKVEIK
notes: as for B1
B8: anti-IL-6 antibody, heavy chain T65Y, light chain WT (antibody, IgG1, V domains shown)
VH: EVQLVESGGGLVQPGGSLRLSCAASGFTFSPFAMSWVRQAPGKGLEWVAKISPGGSWTYYSDTVYGRFTFSLDTSKSTAYLQMNSLRAEDTAVYYCARQLWGYYALDIWGQGTLVTVSS
VL: DIQLTQSPSSLSASVGDRVTITCSASISVSYMYWYQQKPGKAPKLLIYDMSNLASGVPSRFSGSGSGTDFTLTISSLQPEDFATYYCMQWSGYPYTFGQGTKVEIK
notes: as for B1
B9: anti-IL-6 antibody, heavy chain WT, light chain S28R (antibody, IgG1, V domains shown)
VH: EVQLVESGGGLVQPGGSLRLSCAASGFTFSPFAMSWVRQAPGKGLEWVAKISPGGSWTYYSDTVTGRFTFSLDTSKSTAYLQMNSLRAEDTAVYYCARQLWGYYALDIWGQGTLVTVSS
VL: DIQLTQSPSSLSASVGDRVTITCSASIRVSYMYWYQQKPGKAPKLLIYDMSNLASGVPSRFSGSGSGTDFTLTISSLQPEDFATYYCMQWSGYPYTFGQGTKVEIK
notes: as for B1
B10: anti-IL-6 antibody, heavy chain WT, light chain S26K (antibody, IgG1, V domains shown)
VH: EVQLVESGGGLVQPGGSLRLSCAASGFTFSPFAMSWVRQAPGKGLEWVAKISPGGSWTYYSDTVTGRFTFSLDTSKSTAYLQMNSLRAEDTAVYYCARQLWGYYALDIWGQGTLVTVSS
VL: DIQLTQSPSSLSASVGDRVTITCSAKISVSYMYWYQQKPGKAPKLLIYDMSNLASGVPSRFSGSGSGTDFTLTISSLQPEDFATYYCMQWSGYPYTFGQGTKVEIK
notes: as for B1
B11: anti-IL-6 antibody, heavy chain T65G, light chain WT (antibody, IgG1, V domains shown)
VH: EVQLVESGGGLVQPGGSLRLSCAASGFTFSPFAMSWVRQAPGKGLEWVAKISPGGSWTYYSDTVGGRFTFSLDTSKSTAYLQMNSLRAEDTAVYYCARQLWGYYALDIWGQGTLVTVSS
VL: DIQLTQSPSSLSASVGDRVTITCSASISVSYMYWYQQKPGKAPKLLIYDMSNLASGVPSRFSGSGSGTDFTLTISSLQPEDFATYYCMQWSGYPYTFGQGTKVEIK
notes: as for B1
B12: anti-IL-6 antibody, heavy chain WT, light chain S28E (antibody, IgG1, V domains shown)
VH: EVQLVESGGGLVQPGGSLRLSCAASGFTFSPFAMSWVRQAPGKGLEWVAKISPGGSWTYYSDTVTGRFTFSLDTSKSTAYLQMNSLRAEDTAVYYCARQLWGYYALDIWGQGTLVTVSS
VL: DIQLTQSPSSLSASVGDRVTITCSASIEVSYMYWYQQKPGKAPKLLIYDMSNLASGVPSRFSGSGSGTDFTLTISSLQPEDFATYYCMQWSGYPYTFGQGTKVEIK
notes: as for B1
B13: anti-IL-6 antibody, heavy chain WT, light chain S24I (antibody, IgG1, V domains shown)
VH: EVQLVESGGGLVQPGGSLRLSCAASGFTFSPFAMSWVRQAPGKGLEWVAKISPGGSWTYYSDTVTGRFTFSLDTSKSTAYLQMNSLRAEDTAVYYCARQLWGYYALDIWGQGTLVTVSS
VL: DIQLTQSPSSLSASVGDRVTITCIASISVSYMYWYQQKPGKAPKLLIYDMSNLASGVPSRFSGSGSGTDFTLTISSLQPEDFATYYCMQWSGYPYTFGQGTKVEIK
notes: as for B1
B14: anti-IL-6 antibody, heavy chain WT, light chain S24P (antibody, IgG1, V domains shown)
VH: EVQLVESGGGLVQPGGSLRLSCAASGFTFSPFAMSWVRQAPGKGLEWVAKISPGGSWTYYSDTVTGRFTFSLDTSKSTAYLQMNSLRAEDTAVYYCARQLWGYYALDIWGQGTLVTVSS
VL: DIQLTQSPSSLSASVGDRVTITCPASISVSYMYWYQQKPGKAPKLLIYDMSNLASGVPSRFSGSGSGTDFTLTISSLQPEDFATYYCMQWSGYPYTFGQGTKVEIK
notes: as for B1
B15: anti-IL-6 antibody, heavy chain WT, light chain S24V (antibody, IgG1, V domains shown)
VH: EVQLVESGGGLVQPGGSLRLSCAASGFTFSPFAMSWVRQAPGKGLEWVAKISPGGSWTYYSDTVTGRFTFSLDTSKSTAYLQMNSLRAEDTAVYYCARQLWGYYALDIWGQGTLVTVSS
VL: DIQLTQSPSSLSASVGDRVTITCVASISVSYMYWYQQKPGKAPKLLIYDMSNLASGVPSRFSGSGSGTDFTLTISSLQPEDFATYYCMQWSGYPYTFGQGTKVEIK
notes: as for B1
B16: anti-IL-6 antibody, heavy chain V48Q, light chain WT (antibody, IgG1, V domains shown)
VH: EVQLVESGGGLVQPGGSLRLSCAASGFTFSPFAMSWVRQAPGKGLEWQAKISPGGSWTYYSDTVTGRFTFSLDTSKSTAYLQMNSLRAEDTAVYYCARQLWGYYALDIWGQGTLVTVSS
VL: DIQLTQSPSSLSASVGDRVTITCSASISVSYMYWYQQKPGKAPKLLIYDMSNLASGVPSRFSGSGSGTDFTLTISSLQPEDFATYYCMQWSGYPYTFGQGTKVEIK
notes: as for B1
B17: anti-IL-6 antibody, heavy chain T63K, light chain WT (antibody, IgG1, V domains shown)
VH: EVQLVESGGGLVQPGGSLRLSCAASGFTFSPFAMSWVRQAPGKGLEWVAKISPGGSWTYYSDKVTGRFTFSLDTSKSTAYLQMNSLRAEDTAVYYCARQLWGYYALDIWGQGTLVTVSS
VL: DIQLTQSPSSLSASVGDRVTITCSASISVSYMYWYQQKPGKAPKLLIYDMSNLASGVPSRFSGSGSGTDFTLTISSLQPEDFATYYCMQWSGYPYTFGQGTKVEIK
notes: as for B1
B18: anti-IL-6 antibody, heavy chain V64A, light chain WT (antibody, IgG1, V domains shown)
VH: EVQLVESGGGLVQPGGSLRLSCAASGFTFSPFAMSWVRQAPGKGLEWVAKISPGGSWTYYSDTATGRFTFSLDTSKSTAYLQMNSLRAEDTAVYYCARQLWGYYALDIWGQGTLVTVSS
VL: DIQLTQSPSSLSASVGDRVTITCSASISVSYMYWYQQKPGKAPKLLIYDMSNLASGVPSRFSGSGSGTDFTLTISSLQPEDFATYYCMQWSGYPYTFGQGTKVEIK
notes: as for B1

T1 sequence (P05231 30-212 limits assumed): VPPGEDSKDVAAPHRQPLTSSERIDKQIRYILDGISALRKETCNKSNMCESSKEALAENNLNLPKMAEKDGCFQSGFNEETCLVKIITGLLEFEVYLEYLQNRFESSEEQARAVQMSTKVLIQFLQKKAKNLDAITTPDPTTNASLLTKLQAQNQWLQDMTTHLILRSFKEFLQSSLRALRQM

The assay concerns the target T1, recombinant human IL-6 (human, UniProt P05231 30-212).
T1 construct: Flowed in solution over the captured antibodies
The assay is described as follows: SPR (Biacore), supernatant IgG on Protein A, 25 C. Here is the method:
Antibodies were captured on a Protein A chip (GE) by injecting 1:20 dilution of cell supernatant at 10 μL/min for 60 seconds. […] The sensor chip was regenerated by a 60 seconds injection of 10 mM Glycine pH 1.7 at flow rate of 50 μL/min. […] For this setup, 1 μg/mL of purified antibody was injected over a Protein A chip at 10 μL/min for 25-28 seconds. Data analysis for supernatant and purified samples were performed using BIAevaluation software (GE). All sensorgrams were double reference subtracted and fit using a 1:1 Langmuir binding model.
As for B1, the Kd worked out at 0.445 nM, the koff was found to be 0.000169 s⁻¹ and the kon turned out to be 380000 M⁻¹ s⁻¹.
Taken in the same sequence, the figures for B2 were 0.36 nM, 0.000149 s⁻¹ and 415000 M⁻¹ s⁻¹.
Taken in the same sequence, the figures for B3 were 0.594 nM, 0.000184 s⁻¹ and 309000 M⁻¹ s⁻¹.
For B4 the same measures were 0.281 nM, 0.000223 s⁻¹ and 793000 M⁻¹ s⁻¹.
With B5, the Kd worked out at 0.346 nM, the koff was 0.000159 s⁻¹ and the on-rate (kon) worked out at 460000 M⁻¹ s⁻¹.
For B6 the same measures were 0.404 nM, 0.000209 s⁻¹ and 517000 M⁻¹ s⁻¹.
Take B7: the equilibrium dissociation constant (Kd) worked out at 0.424 nM, the off-rate constant (koff) was 0.000132 s⁻¹ and the on-rate (kon) was determined as 311000 M⁻¹ s⁻¹.
For B8 the same measures were 0.275 nM, 0.000206 s⁻¹ and 749000 M⁻¹ s⁻¹.
Taken in the same sequence, the figures for B9 were 0.464 nM, 0.000171 s⁻¹ and 369000 M⁻¹ s⁻¹.
For B10 the same measures were 0.433 nM, 0.000164 s⁻¹ and 379000 M⁻¹ s⁻¹.
As for B11, the Kd stood at 0.0954 nM, the off-rate (koff) was found to be 5.69e-05 s⁻¹ and the on-rate constant (kon) stood at 597000 M⁻¹ s⁻¹.
Taken in the same sequence, the figures for B12 were 0.289 nM, 0.000121 s⁻¹ and 420000 M⁻¹ s⁻¹.
For B13 the same measures were 0.284 nM, 0.000135 s⁻¹ and 476000 M⁻¹ s⁻¹.
Taken in the same sequence, the figures for B14 were 0.00551 nM, 2.67e-06 s⁻¹ and 484000 M⁻¹ s⁻¹.
For the molecule B15, the Kd amounted to 0.403 nM, the off-rate constant (koff) was found to be 0.000137 s⁻¹ and the on-rate (kon) was found to be 340000 M⁻¹ s⁻¹.
Taken in the same sequence, the figures for B16 were 0.21 nM, 0.000138 s⁻¹ and 654000 M⁻¹ s⁻¹.
Taken in the same sequence, the figures for B17 were 0.388 nM, 0.000212 s⁻¹ and 546000 M⁻¹ s⁻¹.
As to B18, the dissociation constant Kd stood at 0.402 nM, the koff was found to be 0.000178 s⁻¹ and the on-rate constant (kon) was 444000 M⁻¹ s⁻¹.
